What all share (experiment): cell-based or functional assay
Experiment [1] has as its target T1, human GIPR (glucose-dependent insulinotropic polypeptide receptor) (human, UniProt P48546 22-466).
T1 sequence (looked up): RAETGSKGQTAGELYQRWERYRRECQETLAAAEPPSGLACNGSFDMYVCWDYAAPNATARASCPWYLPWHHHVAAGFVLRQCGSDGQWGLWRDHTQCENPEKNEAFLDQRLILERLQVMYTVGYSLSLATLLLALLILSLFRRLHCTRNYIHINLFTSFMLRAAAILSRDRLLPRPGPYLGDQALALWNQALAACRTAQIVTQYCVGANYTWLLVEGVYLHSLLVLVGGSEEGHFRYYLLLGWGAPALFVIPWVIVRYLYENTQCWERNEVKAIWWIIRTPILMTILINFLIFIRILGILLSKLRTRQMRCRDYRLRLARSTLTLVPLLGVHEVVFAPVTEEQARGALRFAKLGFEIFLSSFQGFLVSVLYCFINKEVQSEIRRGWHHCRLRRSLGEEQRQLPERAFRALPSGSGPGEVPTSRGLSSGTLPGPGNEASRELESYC

In experiment [2] the target is human GLP-1R (glucagon-like peptide-1 receptor) (human, UniProt P43220 24-463).
In experiment [3] the target is T2, human GLP-2R (glucagon-like peptide-2 receptor) (human, UniProt O95838 1-553).
T2 sequence (looked up): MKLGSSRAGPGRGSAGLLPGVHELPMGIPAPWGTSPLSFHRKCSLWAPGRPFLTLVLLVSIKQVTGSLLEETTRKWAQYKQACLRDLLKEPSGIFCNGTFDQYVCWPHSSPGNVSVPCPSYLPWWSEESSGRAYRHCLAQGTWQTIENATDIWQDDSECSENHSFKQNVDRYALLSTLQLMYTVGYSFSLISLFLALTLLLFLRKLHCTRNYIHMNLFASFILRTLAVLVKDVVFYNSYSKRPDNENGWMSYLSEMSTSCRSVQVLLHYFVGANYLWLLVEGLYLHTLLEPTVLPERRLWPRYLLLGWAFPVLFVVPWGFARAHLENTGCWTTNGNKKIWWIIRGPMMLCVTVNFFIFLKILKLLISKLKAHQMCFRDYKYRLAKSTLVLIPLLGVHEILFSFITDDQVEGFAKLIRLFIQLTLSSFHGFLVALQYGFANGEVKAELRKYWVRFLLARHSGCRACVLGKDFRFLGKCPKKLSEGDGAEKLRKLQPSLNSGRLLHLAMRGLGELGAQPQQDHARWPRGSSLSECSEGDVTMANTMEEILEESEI

Where no end group is shown, it is not given here. [ ]: non-standard residue; d: D form. The star is where a group is joined. Decanoyl = CCCCCCCCCC(=O)*; Aib = CC(C)(N)C(=O)O

Regarding HXDGTFISDYSTILDNLAARDFIEWLIQTKITK (Aib at position 2; K33 acylated with C10, K(C10); C-terminal amide (-NH2)) [Compound 9], in experiment [1], the “EC50 (nM) GIPR” value stood at 0.708 nM, the “Efficacy GIPR” value turned out to be 104 and the “pEC50 GIPR” value was found to be 9.2. For the same molecule, in experiment [2], the “EC50 (nM) GLP-1R” value turned out to be 5.62 nM, the “Efficacy GLP-1R” value was determined as 105 and the “logEC50 GLP-1R” value was 8.3. Also, in experiment [3], the “Efficacy GLP-2R” value came to 108 and the “logEC50 GLP-2R” value was found to be 8.

B1: Compound 12 (peptide)
peptide: HXDGTFISDYSTXLDNLAARDFINWLIQTKITK
modifications: Aib at positions 2 and 13; K33 acylated with C10, K(C10); C-terminal amide (-NH2)
Regarding B1, the “Efficacy GIPR” value in experiment [1] amounted to 107. For the same molecule, the “Efficacy GLP-1R” value in experiment [2] was 76. The “Efficacy GLP-2R” value in experiment [3] was found to be 77.

B2: Compound 17 (peptide)
peptide: HXDGTFISDYSTILDNLAARDFINWLIQTKITK
modifications: Aib at position 2; K33 acylated with C10 via γGlu linker, K(γGlu-C10); C-terminal amide (-NH2)
Regarding B2, the “Efficacy GIPR” value in experiment [1] amounted to 97. For the same molecule, the “Efficacy GLP-1R” value in experiment [2] was 107. Besides, the “Efficacy GLP-2R” value in experiment [3] came out at 92.

B3: Compound 5 (peptide)
peptide: H[Aib]DGTFISDYSTILDALAARDFINWLIQTKITK(Decanoyl)-NH2
modifications: N-terminus assumed
SMILES: CCCCCCCCCC(=O)NCCCC[C@H](NC(=O)[C@@H](NC(=O)[C@@H](NC(=O)[C@H](CCCCN)NC(=O)[C@@H](NC(=O)[C@H](CCC(N)=O)NC(=O)[C@@H](NC(=O)[C@H](CC(C)C)NC(=O)[C@H](Cc1c[nH]c2ccccc12)NC(=O)[C@H](CC(N)=O)NC(=O)[C@@H](NC(=O)[C@H](Cc1ccccc1)NC(=O)[C@H](CC(=O)O)NC(=O)[C@H](CCCNC(=N)N)NC(=O)[C@H](C)NC(=O)[C@H](C)NC(=O)[C@H](CC(C)C)NC(=O)[C@H](C)NC(=O)[C@H](CC(=O)O)NC(=O)[C@H](CC(C)C)NC(=O)[C@@H](NC(=O)[C@@H](NC(=O)[C@H](CO)NC(=O)[C@H](Cc1ccc(O)cc1)NC(=O)[C@H](CC(=O)O)NC(=O)[C@H](CO)NC(=O)[C@@H](NC(=O)[C@H](Cc1ccccc1)NC(=O)[C@@H](NC(=O)CNC(=O)[C@H](CC(=O)O)NC(=O)C(C)(C)NC(=O)[C@@H](N)Cc1c[nH]cn1)[C@@H](C)O)[C@@H](C)CC)[C@@H](C)O)[C@@H](C)CC)[C@@H](C)CC)[C@@H](C)CC)[C@@H](C)O)[C@@H](C)CC)[C@@H](C)O)C(N)=O
Turning to B3, in experiment [1], the “EC50 (nM) GIPR” value turned out to be 0.158 nM, the “Efficacy GIPR” value is 111 and the “pEC50 GIPR” value was 9.8. In experiment [2], the “EC50 (nM) GLP-1R” value was 1.78 nM, the “Efficacy GLP-1R” value turned out to be 105 and the “logEC50 GLP-1R” value came to 8.8. Besides, in experiment [3], the “Efficacy GLP-2R” value came out at 110 and the “logEC50 GLP-2R” value was determined as 8.7.

B4: Compound 16 (peptide)
peptide: Y[Aib]DGTFISDYSTILDNLAARDFINWLIQTKITK(Decanoyl)-NH2
modifications: N-terminus assumed
SMILES: CCCCCCCCCC(=O)NCCCC[C@H](NC(=O)[C@@H](NC(=O)[C@@H](NC(=O)[C@H](CCCCN)NC(=O)[C@@H](NC(=O)[C@H](CCC(N)=O)NC(=O)[C@@H](NC(=O)[C@H](CC(C)C)NC(=O)[C@H](Cc1c[nH]c2ccccc12)NC(=O)[C@H](CC(N)=O)NC(=O)[C@@H](NC(=O)[C@H](Cc1ccccc1)NC(=O)[C@H](CC(=O)O)NC(=O)[C@H](CCCNC(=N)N)NC(=O)[C@H](C)NC(=O)[C@H](C)NC(=O)[C@H](CC(C)C)NC(=O)[C@H](CC(N)=O)NC(=O)[C@H](CC(=O)O)NC(=O)[C@H](CC(C)C)NC(=O)[C@@H](NC(=O)[C@@H](NC(=O)[C@H](CO)NC(=O)[C@H](Cc1ccc(O)cc1)NC(=O)[C@H](CC(=O)O)NC(=O)[C@H](CO)NC(=O)[C@@H](NC(=O)[C@H](Cc1ccccc1)NC(=O)[C@@H](NC(=O)CNC(=O)[C@H](CC(=O)O)NC(=O)C(C)(C)NC(=O)[C@@H](N)Cc1ccc(O)cc1)[C@@H](C)O)[C@@H](C)CC)[C@@H](C)O)[C@@H](C)CC)[C@@H](C)CC)[C@@H](C)CC)[C@@H](C)O)[C@@H](C)CC)[C@@H](C)O)C(N)=O
For B4, in experiment [1], the “EC50 (nM) GIPR” value is 1 nM, the “Efficacy GIPR” value came to 99 and the “pEC50 GIPR” value stood at 9. In addition, in experiment [2], the “EC50 (nM) GLP-1R” value came to 56.2 nM, the “Efficacy GLP-1R” value turned out to be 59 and the “logEC50 GLP-1R” value came out at 7.3. In experiment [3], the “EC50 (nM) GLP-2R” value was 8.9 nM, the “Efficacy GLP-2R” value was 93 and the “logEC50 GLP-2R” value stood at 8.1.
As to H[Aib]DGTFISDYSIILDNLAARDFINWLIQTKITK(Decanoyl)-NH2 [Compound 10], in experiment [1], the “EC50 (nM) GIPR” value was 0.501 nM, the “Efficacy GIPR” value was determined as 127 and the “pEC50 GIPR” value stood at 9.3. In addition, in experiment [2], the “EC50 (nM) GLP-1R” value was found to be 3.98 nM, the “Efficacy GLP-1R” value was found to be 99 and the “logEC50 GLP-1R” value came to 8.4. In addition, in experiment [3], the “Efficacy GLP-2R” value was 103 and the “logEC50 GLP-2R” value was 8.
Regarding H[Aib]EGTFISDYSTILDNLAARDFINWLIQTKITK(Decanoyl)-NH2 [Compound 11], in experiment [1], the “EC50 (nM) GIPR” value worked out at 13.6 nM, the “Efficacy GIPR” value is 89 and the “pEC50 GIPR” value amounted to 7.9. Moreover, in experiment [2], the “EC50 (nM) GLP-1R” value was found to be 39.8 nM, the “Efficacy GLP-1R” value is 76 and the “logEC50 GLP-1R” value worked out at 7.4. Moreover, in experiment [3], the “EC50 (nM) GLP-2R” value stood at 25.1 nM, the “Efficacy GLP-2R” value came out at 68 and the “logEC50 GLP-2R” value is 7.6.

B5: Compound 13 (peptide)
peptide: H[Aib]DGTFISDYSTELDNLAARDFINWLIQTKITK(Decanoyl)-NH2
modifications: N-terminus assumed
SMILES: CCCCCCCCCC(=O)NCCCC[C@H](NC(=O)[C@@H](NC(=O)[C@@H](NC(=O)[C@H](CCCCN)NC(=O)[C@@H](NC(=O)[C@H](CCC(N)=O)NC(=O)[C@@H](NC(=O)[C@H](CC(C)C)NC(=O)[C@H](Cc1c[nH]c2ccccc12)NC(=O)[C@H](CC(N)=O)NC(=O)[C@@H](NC(=O)[C@H](Cc1ccccc1)NC(=O)[C@H](CC(=O)O)NC(=O)[C@H](CCCNC(=N)N)NC(=O)[C@H](C)NC(=O)[C@H](C)NC(=O)[C@H](CC(C)C)NC(=O)[C@H](CC(N)=O)NC(=O)[C@H](CC(=O)O)NC(=O)[C@H](CC(C)C)NC(=O)[C@H](CCC(=O)O)NC(=O)[C@@H](NC(=O)[C@H](CO)NC(=O)[C@H](Cc1ccc(O)cc1)NC(=O)[C@H](CC(=O)O)NC(=O)[C@H](CO)NC(=O)[C@@H](NC(=O)[C@H](Cc1ccccc1)NC(=O)[C@@H](NC(=O)CNC(=O)[C@H](CC(=O)O)NC(=O)C(C)(C)NC(=O)[C@@H](N)Cc1c[nH]cn1)[C@@H](C)O)[C@@H](C)CC)[C@@H](C)O)[C@@H](C)CC)[C@@H](C)CC)[C@@H](C)O)[C@@H](C)CC)[C@@H](C)O)C(N)=O
B5: in experiment [1], the “EC50 (nM) GIPR” value is 7.94 nM, the “Efficacy GIPR” value turned out to be 117 and the “pEC50 GIPR” value worked out at 8.1. In addition, in experiment [2], the “EC50 (nM) GLP-1R” value stood at 25.1 nM, the “Efficacy GLP-1R” value amounted to 85 and the “logEC50 GLP-1R” value was 7.6. In experiment [3], the “EC50 (nM) GLP-2R” value worked out at 25.1 nM, the “Efficacy GLP-2R” value was 86 and the “logEC50 GLP-2R” value was found to be 7.6.

For the origin of these results see patent publication US20250304644A1, “PEPTIDES TRIPLE AGONISTS OF GIP, GLP-1 AND GLP-2” (BAINAN BIOTECH APS, priority 2021, published 2025).
